Common to all, as to settings: 20 nM; 72 h
Data set [1] relates to MCF10A. Nature of the data set: percent viability (nuclei count relative to siNT); higher = more viable cells. On the procedure: (§1)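 After 72 h, cells were fixed and stained with Hoechst and anti-fibrillarin, and nucleoli per nucleus were counted with CellProfiler. Values are plate-adjusted percent effect for the one-nucleolus and 5+ nucleoli phenotypes, normalised to siNT (0%) and to the positive controls siNOL11 or siKIF11 (100%), as the mean of biological triplicates. Percent viability is the nuclei count relative to siNT.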

Data set [2] relates to MCF10A. The experiment in a line: 5+ nucleoli phenotype percent effect (relative to siNT 0% and siKIF11 100%); higher = more cells with five or more nucleoli. On the procedure: as §1
The subject of data set [3] is MCF10A. Nature of the data set: one-nucleolus phenotype percent effect (relative to siNT 0% and siNOL11 100%); higher = more cells with one nucleolus (ribosome biogenesis inhibition). On the procedure: as §1

With “CCAGUAUUAACUGUGCUGCUGA [hsa-miR-16-1-3p]”, the percent viability with MCF10A [1] worked out at 85.1%. For the same sequence, the “5+ nucleoli phenotype percent effect” value in the data set with MCF10A [2] is -19.3%. The “one-nucleolus phenotype percent effect” value in the data set on MCF10A [3] stood at 7.96%.
In the same order, the values of CCAGUCCUGUGCCUGCCGCCU [hsa-miR-1910] are 100%, 6.81% and 3.9%.
In the same order, the values of CCAGUGACUGAGCUGGAGCCA [hsa-miR-5190] are 31.7%, -11.4% and 29.3%.
In the same order, the values of CCAGUGGGGCUGCUGUUAUCUG [hsa-miR-194-3p] are 138%, 10.5% and -11.8%.
On to CCAGUGUGGCUCAGCGAG [hsa-miR-4302], for which, in the data set with MCF10A [1], the percent viability worked out at 28.8%. Further, the “5+ nucleoli phenotype percent effect” value with MCF10A [2] is -22.9%. For the same sequence, the “one-nucleolus phenotype percent effect” value in the data set with MCF10A [3] was 18.9%.
In the same order, the values of CCAGUUACCGCUUCCGCUACCGC [hsa-miR-935] are 59%, -23.4% and 15.8%.
In the same order, the values of CCAGUUUUCCCAGGAUU [hsa-miR-4328] are 108%, 62.6% and -38.7%.
In the same order, the values of CCAUGAAGCAGUGGGUAGGAGGAC [hsa-miR-8060] are 43.2%, 14.9% and 6.65%.
In the case of CCAUGGAUCUCCAGGUGGGU [hsa-miR-490-5p], in the data set with MCF10A [1], the percent viability amounted to 63.5%. The “5+ nucleoli phenotype percent effect” value in the data set with MCF10A [2] came to 16.2%. Further, in the data set with MCF10A [3], the “one-nucleolus phenotype percent effect” value worked out at 0.865%.
For the sequence “CCCAAUACACGGUCGACCUCUU [hsa-miR-323b-3p]”, the percent viability with MCF10A [1] came to 77.6%. Moreover, in the data set on MCF10A [2], the “5+ nucleoli phenotype percent effect” value amounted to 68.7%. Besides, in the data set on MCF10A [3], the “one-nucleolus phenotype percent effect” value is -23.7%.
Take CCCAGAUAAUGGCACUCUCAA [hsa-miR-488-5p]: the percent viability with MCF10A [1] turned out to be 50.9%. In the data set with MCF10A [2], the “5+ nucleoli phenotype percent effect” value amounted to 32.8%. Moreover, the “one-nucleolus phenotype percent effect” value in the data set with MCF10A [3] was -5.8%.
In the same order, the values of CCCAGCAGGACGGGAGCG [hsa-miR-4530] are 111%, 43.3% and -26.2%.
As to “CCCAGGGCUUGGAGUGGGGCAAGGUU [hsa-miR-4685-5p]”, in the data set on MCF10A [1], the percent viability is 69.2%. Besides, in the data set on MCF10A [2], the “5+ nucleoli phenotype percent effect” value was 15%. Besides, the “one-nucleolus phenotype percent effect” value in the data set with MCF10A [3] was 9.96%.
In the same order, the values of “CCCAGUGUUCAGACUACCUGUUC [hsa-miR-199a-5p]” are 68.8%, -30.3% and 4.51%.
In the same order, the values of “CCCAGUGUUUAGACUAUCUGUUC [hsa-miR-199b-5p]” are 170%, 26.5% and -14.4%.
In the same order, the values of “CCCAUCACCUUUCCGUCUCCCCU [hsa-miR-6884-3p]” are 70.3%, 50.9% and -25.5%.
On to CCCAUGCCUCCUGCCGCGGUC [hsa-miR-6872-3p], for which the percent viability in the data set with MCF10A [1] stood at 48%. The “5+ nucleoli phenotype percent effect” value in the data set on MCF10A [2] is -8.71%. Moreover, the “one-nucleolus phenotype percent effect” value in the data set on MCF10A [3] was 17.4%.
In the same order, the values of CCCCAGGGCGACGCGGCGGG [hsa-miR-1915-3p] are 87.8%, 42.5% and -13.1%.
In the same order, the values of CCCCGCCACCGCCUUGG [hsa-miR-4258] are 54.5%, 29.4% and -17.4%.
As to “CCCCGGGAACGUCGAGACUGGAGC [hsa-miR-1247-3p]”, the percent viability in the data set on MCF10A [1] stood at 17.1%. In addition, the “5+ nucleoli phenotype percent effect” value with MCF10A [2] is -15.3%. In the data set with MCF10A [3], the “one-nucleolus phenotype percent effect” value amounted to 41.2%.
In the same order, the values of CCCCGGGGAGCCCGGCG [hsa-miR-4532] are 148%, 45.2% and -24.8%.
In the same order, the values of “CCCCGGUGUUGGGGCGCGUCUGC [hsa-miR-4783-3p]” are 49.5%, 13.9% and -13%.
In the same order, the values of CCCCUGGGCCGGCCUUGG [hsa-miR-4292] are 26.6%, 31.4% and 4.18%.
With “CCCCUGGGGCUGGGCAGGCGGA [hsa-miR-6791-5p]”, the percent viability with MCF10A [1] is 107%. Further, the “5+ nucleoli phenotype percent effect” value in the data set on MCF10A [2] was 45.9%. Further, the “one-nucleolus phenotype percent effect” value with MCF10A [3] was -13.7%.
In the same order, the values of CCCGCAGGUGAGAUGAGGGCU [hsa-miR-6886-5p] are 28.8%, -23.1% and 9.43%.
In the same order, the values of CCCGGACAGGCGUUCGUGCGACGU [hsa-miR-3687] are 86.1%, 26.3% and -20.6%.
CCCGGAGCCAGGAUGCAGCUC [hsa-miR-1203]: in the data set on MCF10A [1], the percent viability was 68.6%. The “5+ nucleoli phenotype percent effect” value in the data set with MCF10A [2] is 4.95%. Moreover, the “one-nucleolus phenotype percent effect” value with MCF10A [3] was -10.2%.
In the same order, the values of CCCGGCCGGAACGCCGCACU [hsa-miR-6850-3p] are 65.7%, 23.1% and -20.3%.
In the same order, the values of CCCUCAUCUUCCCCUCCUUUC [hsa-miR-6891-3p] are 35.9%, -10.8% and 36.8%.
In the same order, the values of “CCCUCUCUGGCUCCUCCCCAAA [hsa-miR-4723-3p]” are 114%, 50.7% and -23.7%.
Regarding “CCCUCUCUGUCCCACCCAUAG [hsa-miR-6769b-3p]”, the percent viability in the data set with MCF10A [1] is 73.7%. The “5+ nucleoli phenotype percent effect” value in the data set on MCF10A [2] is 91.5%. Moreover, the “one-nucleolus phenotype percent effect” value in the data set on MCF10A [3] is -27.6%.
In the same order, the values of CCCUGAGACCCUAACCUUAA [hsa-miR-4324] are 84%, 38.6% and -27%.
In the same order, the values of “CCCUGCUGCCUUCACCUGCCAG [hsa-miR-6893-3p]” are 50.3%, -2.09% and -5.77%.
In the same order, the values of CCCUGGGCCUCUGCUCCCCAG [hsa-miR-939-3p] are 31.6%, -13% and 17.1%.
Regarding CCCUGGGGUUCUGAGGACAUG [hsa-miR-6852-5p], the percent viability in the data set with MCF10A [1] is 32.3%. Also, in the data set on MCF10A [2], the “5+ nucleoli phenotype percent effect” value stood at 29%. In addition, the “one-nucleolus phenotype percent effect” value in the data set with MCF10A [3] was 8.28%.
In the same order, the values of “CCCUGUGCCCGGCCCACUUCUG [hsa-miR-1914-5p]” are 90.2%, 1.43% and -13.8%.
With “CCCUGUUCUAUGCCCUGAGGGA [hsa-miR-1266-3p]”, the percent viability in the data set with MCF10A [1] stood at 90.7%. The “5+ nucleoli phenotype percent effect” value in the data set with MCF10A [2] stood at 47.8%. In addition, the “one-nucleolus phenotype percent effect” value with MCF10A [3] is -19.3%.
In the same order, the values of “CCCUUCCCUCACUCUUCUCUCAG [hsa-miR-6734-3p]” are 44.4%, 13.3% and -3.15%.
For the sequence CCCUUGGGUCUGAUGGGGUAG [hsa-miR-3189-3p], the percent viability with MCF10A [1] came out at 25.3%. The “5+ nucleoli phenotype percent effect” value in the data set with MCF10A [2] was -6.22%. Moreover, the “one-nucleolus phenotype percent effect” value in the data set on MCF10A [3] was determined as 15.4%.
In the same order, the values of CCGCCUGAGCUAGCUGUGG [hsa-miR-6078] are 89.3%, 38.1% and -22.1%.
In the same order, the values of CCGCCUUCUCUCCUCCCCCAG [hsa-miR-6880-3p] are 117%, 65.6% and -31.4%.
In the same order, the values of CCGCUCUUCCCCUGACCCCAG [hsa-miR-6812-3p] are 163%, 54.6% and -35.5%.
In the case of CCGCUUUCUGAGCUGGAC [hsa-miR-4315], in the data set with MCF10A [1], the percent viability was 25.2%. In addition, in the data set with MCF10A [2], the “5+ nucleoli phenotype percent effect” value was -27.2%. For the same sequence, the “one-nucleolus phenotype percent effect” value with MCF10A [3] worked out at 34.8%.
In the same order, the values of CCGGCAUGUCCAGGGCA [hsa-miR-4304] are 25.4%, 3.17% and 14.3%.
In the case of CCGGCCGCCGGCUCCGCCCCG [hsa-miR-1908-3p], the percent viability in the data set with MCF10A [1] worked out at 96%. The “5+ nucleoli phenotype percent effect” value with MCF10A [2] was determined as 44.4%. In the data set with MCF10A [3], the “one-nucleolus phenotype percent effect” value was -14.6%.
Take “CCGGGAGAAGGAGGUGGCCUGG [hsa-miR-6746-5p]”: the percent viability with MCF10A [1] is 50.3%. For the same sequence, the “5+ nucleoli phenotype percent effect” value in the data set on MCF10A [2] stood at 61.4%. In addition, in the data set on MCF10A [3], the “one-nucleolus phenotype percent effect” value is -15.9%.
In the same order, the values of CCGGGGCAGAUUGGUGUAGGGUG [hsa-miR-5090] are 82%, 24.7% and -10.2%.
Take “CCGGUCCCAGGAGAACCUGCAGA [hsa-miR-4746-5p]”: in the data set with MCF10A [1], the percent viability was 45.1%. For the same sequence, in the data set with MCF10A [2], the “5+ nucleoli phenotype percent effect” value came out at 8.72%. Moreover, the “one-nucleolus phenotype percent effect” value with MCF10A [3] amounted to 11.9%.

Values taken from the supplement of paper PMC10899765.
